Series [1] addresses T1, N-terminally FLAG tagged Tgl2 (S. cerevisiae, UniProt P54857 1-326).
T1 sequence (looked up): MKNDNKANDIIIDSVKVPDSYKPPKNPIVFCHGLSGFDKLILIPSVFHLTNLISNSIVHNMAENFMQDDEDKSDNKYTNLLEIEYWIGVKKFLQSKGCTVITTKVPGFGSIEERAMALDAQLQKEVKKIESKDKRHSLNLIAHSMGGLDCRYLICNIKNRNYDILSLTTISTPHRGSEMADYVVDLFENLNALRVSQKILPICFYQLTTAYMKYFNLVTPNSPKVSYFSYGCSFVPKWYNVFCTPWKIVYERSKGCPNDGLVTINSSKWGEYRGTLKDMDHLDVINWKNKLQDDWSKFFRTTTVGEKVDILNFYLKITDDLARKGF
Put plainly: native gel or EMSA.

Series [2] deals with the molecule itself. Nature of the series: non-reducing SDS-PAGE with immunodecoration.

B1: N-terminally HA tagged Tgl2 (natural protein, S. cerevisiae, UniProt P54857 1-326, looked up)
chain: MKNDNKANDIIIDSVKVPDSYKPPKNPIVFCHGLSGFDKLILIPSVFHLTNLISNSIVHNMAENFMQDDEDKSDNKYTNLLEIEYWIGVKKFLQSKGCTVITTKVPGFGSIEERAMALDAQLQKEVKKIESKDKRHSLNLIAHSMGGLDCRYLICNIKNRNYDILSLTTISTPHRGSEMADYVVDLFENLNALRVSQKILPICFYQLTTAYMKYFNLVTPNSPKVSYFSYGCSFVPKWYNVFCTPWKIVYERSKGCPNDGLVTINSSKWGEYRGTLKDMDHLDVINWKNKLQDDWSKFFRTTTVGEKVDILNFYLKITDDLARKGF
For B1, the “stoichiometry N” value is at least 2 in series [1] and 2 in series [2].

For the origin of these results see paper doi:10.1101/2024.05.08.593122 (bioRxiv, 2024).
